Assay: soluble on expression in E. coli; label from the status in PepcDB or PDB records

| Sequence | soluble on expression in E. coli |
| --- | --- |
| MAGDPNSMFSPQASAAYDDLHEGYATYTGSGYSGGAFLLDPIPSDMEITAINPADLNYGGVKAALAGSYLEVEGPKGKTTVYVTDLYPEGARGALDLSPNAFRKIGNMKDGKINIKWRVVKAPITGNFTYRIKEGSSRWWAAIQVRNHKYPVMKMEYEKDGKWINMEKMDYNHFVSTNLGTGSLKVRMTDIRGKVVKDTIPKLPESGTSKAYTVPGHVQFPELEHHHHHH | soluble |
| MTKETYPKATVLDISASVEYSDGGIISKQVLKNEVGNITLFSFDQGQGLSEHTAPFDAFVQILEGEAEIRIGGQPLLLKAGRSVIMPANVSHALHATKRFKMLLTMIRG | not soluble |
| KKDFTWNATVNFSSNQSKVLSLGAETQMLEGRPVGSASGSENVLIKKGYPLGLFYGLQMEGIRSNWHSDYNGIGSADSPWWYATEREMPYGFPSFADTNGDGKVDMSDRVVIGDVNPVFIGGLNTRLRWKFIELAMDFSWSYGNDIINGNVYNLMNNGDIRNKSAVYYKDAWFANNPTGTFTGPGAIDWSGYMWAASNSEMVEDGSFLKMNNLAVTFRMPKNILKAWKIKDLALTYTINNVFCLTNYSGYDPEVRSGSSVNNRILPGVDISAYPYARSHIFSLNFKY | not soluble |
| MKLTDSVLRSFRVAKVFRENSDKINCFDFSSNGETVISSSDDDSIVLYDCQEGKPKRTLYSKKYGVDLIRYTHAANTVVYSSNKIDDTIRYLSLHDNKYIRYFPGHNKRVVALSMSPVDDTFISGSLDKTIRLWDLRSPNCQGLMHLQGKPVCSFDPEGLIFAAGVNSEMVKLYDLRSFDKGPFATFKLQYERTCEWTGLKFSNDGKLILVSTNGGTLRVLDAFKGAVLHSFGGYNNSKGVILEAPFTPDSQFIMIGSEDGKIHVWNAESGMKVALLDGKHTGPVTCLQFNPKFMTFASACSNMAFWLPTIDD | not soluble |
| KDTIALVVSTLNNPFFVSLKDGAQKEADKLGYNLVVLDSQNNPAKELANVQDLTVRGTKILLINPTRSDAVGNAVKMANQANIPVITLDRQATKGEVVSHIASDNVLGGKIAGDYIAKKAGEGAKVIELQGIAGTSAARERGEGFQQAVAAHKFNVLASQPADFDRIKGLNVMQNLLTAHPDVQAVFAQNDEMALGALRALQTAGKSDVMVVGFDGTPDGEKAVNDGKLAATIAQLPDQIGAKGVETADKVLKGEKVQAKYPVDLKLVVKQ | soluble |
| MEPVRIGGPVGAGKTMLVEKLTRAMHRRFSIAVITNDIYTKEDAQFLIKHSVLPEDRIIGVETGGCPHTAIREDASMNFAAIDELKRRHPDVELILIESGGDNLAATFSPELVDFSIYVIDVAQGEKIPRKGGQGMIKSDLLVINKIDLAPYVGASLEVMERDAKAVRGAKPVIFTNLKEEIGLFDVVDWIEKQVLLAGLEE | not soluble |
| MIQCEECLCWQHSVCMGLLEESIPEQYICYICRDPPGQRWSAKYRYDKEWLNNGRMCGLSFFKENYSHLNAKKIVSTHHLLADVYGVTEVLHGLQLKIGILKNKHHPDLHLWACSGKRKDQDQIIAGVEKKIAQDTVNREEKKYVQNHKEPPRLPLKMEGTYITSEHSYQKPQSFGQDCKSLADPGSSDDDDVSSLEEEQEFHMRSKNSLQYSAKEHGMPEKNPAEGNTVFVYNDKKGTEDPGDSHLQWQLNLLTHIENVQNEVTSRMDLIEKEVDVLESWLDFTGELEPPDPLARLPQLKRHIKQLLIDMGKVQQIATLCSV | soluble |
| MSLYPGQFAKTRPDHPAFIMASTGETVSYAELEARSNRLAHLLRNHGLQRLDHYSIFMENNNRYIEACAAGERSGYYYTCVNSYLTPAELAYILTNSESRALITSKAKLDVAREALKDCPNVTLCVVVDGDGESERIVGLAEATKNLPDTPIADESLGTAMLYSSGTTGRPKGILRPLPEQPPSEPLPLFHFLNMLWKYRDGMIYLSPAPLYHSAPQAAVGLTIRDGGTVIIMEHFDPEQYLALIGKHKVTHSQLVPTMFSRMLKLPEEARKTYDLSTLEVAIHAAAPCPPQVKEQMIEWWGPIIHEYYGATEGLGFTACNSAEWLAHRGTVGKVMFGDLHILDDGMKPCPKGTPGQIWFKTATPFEYFNDPKKTQEARSEDGSMSTVGDVGYVDDDGYLHLTDRATFMIISGGVNIYPQECENLLITHPKVADAAVFGVPNEDLGEEVKAVVQPMPGVAAGADLAAELIAFCAQSLSRQKVPRSIDFMDELPRLPTGKLYKRLLRDRYWGNKNSREGHHHHHH | soluble |
| EGDPENGEKLQITIRRGKDGFGFTICCDSPVRVQAVDSGGPAERAGLQQLDTVLQLNERPVEHWKCVELAHEIRSCPSEIILLVWRV | soluble |
| MGSDKIHHHHHHAAGLVVNDNDLRNDLAWLSDRGVIHLSLSTWPLSQEEIARALKKAKPSYSSEQVVLARINQRLSALKADFRVTGYTSTDQPGTPQGFGQTQPADSSLGLAFNNSGEWWDVHLQGNVEGGERISNGSRFNANGAYGAVKFWNQWLSFGQIPQWWGPGYEGSLIRGDAMRPMTGFLMQRAEQAAPETWWLRWVGPWQYQISASQMNQYTAVPHAKIIGGRFTFSPFQSLELGASRIMQWGGEGRPESFSSFWDGFTGHDNTGTDNEPGNQLAGFDFKFKLEPTLGWPVSFYGQMVGEDESGYLPSANMFLGGVEGHHGWGKDAVNWYVEAHDTRTNMSRTNYSYTHHIYKDGYYQQGYPLGDAMGGDGQLIAGKVELITEDNQRWSTRLVYAKVNPENQSINKAFPHADTLKGVQLGWSGDVYQSVRLNTSLWYTNANNSDSDDVGASAGIEIPFSL | not soluble |
| GSMAGWQSYVDNLMCDGCCQEAAIVGYCDAKYVWAATAGGVFQSITPAEIDVIIGKDREGFFTNGLTLGGKKCSVIRDSLYVDSDCTMDIRTKSQGGEPTYNVAVGRAGRVLVFVMGKEGVHGGGLNKKAYSMAKYLRDSGF | soluble |
| LVLKVVTVTRNLDPDDTARKKAPPPPKRAPTTALTLRSKSMTSELEELVDKDKPEEIVPASKPSRAAENMAVEPRVATIKQRPSSRCFPAGSDMNSVYERQGIAVMTPTVPGSPKAPFLGIPRGTMRRQKSIDSRIFLSGITEEERQFLAPPMLKFTRSLSMPDTSEDIPPPPQSVPPSPPPPSPTTYNCPKSPTPRVYGTIKPAFNQNSAAKVSPATRSDTVATMMREKGMYFRRELDRYSLDSEDLYSRNAGPQANFRNKRGQMPENPYSEVGKIASKAVYVPAKPARRKGMLVKQSNVEDSPEKTCSIPIPTIIVKEPSTSSSGKSSQGSSMEIDPQAPEPPSQLRPDESLTVSSPFAAAIAGAVRDREKRLEARRNSPAFLSTDLGDEDVGLGPPAPRTRPSMFPEEGDFADEDSAEQLSSPMPSATPREPENHFVGGAEASAPGEAGRPLNSTSKAQGPESSPAVPSASSGTAGPGNYVHPLTGRLLDPSSPLALALSARDRAMKESQQGPKGEAPKADLNKPLYIDTKMRPSLDAGFPTVTRQNTRGPLRRQETENKYETDLGRDRKGDDKKNMLIDIMDTSQQKSAGLLMVHTVDATKLDNALQEEDEKAEVEMKPDSSPSEVPEGVSETEGALQISAAPEPTTVPGRTIVAVGSMEEAVILPFRIPPPPLASVDLDEDFIFTEPLPPPLEFANSFDIPDDRAASVPALSDLVKQKKSDTPQSPSLNSSQPTNSADSKKPASLSNCLPASFLPPPESFDAVADSGIEEVDSRSSSDHHLETTSTISTVSSISTLSSEGGENVDTCTVYADGQAFMVDKPPVPPKPKMKPIIHKSNALYQDALVEEDVDSFVIPPPAPPPPPGSAQPGMAKVLQPRTSKLWGDVTEIKSPILSGPKANVISELNSILQQMNREKLAKPGEGLDSPMGAKSASLAPRSPEIMSTISGTRSTTVTFTVRPGTSQPITLQSRPPDYESRTSGTRRAPSPVVSPTEMNKETLPAPLSAATASPSPALSDVFSLPSQPPSGDLFGLNPAGRSRSPSPSILQQPISNKPFTTKPVHLWTKPDVADWLESLNLGEHKEAFMDNEIDGSHLPNLQKEDLIDLGVTRVGHRMNIERALKQLLDR | soluble |
| AFSFAAEHGLELDKVDIDLTDKAAMQDGARTFANYCMGCHSAKFQRYERVADDLGIPHELMLEKLVFTGAKIGDHMQIGMKPSDAKTWFGAAPPDLTLVARVRGTDWLYTYLRSFYEDPSRPYGVNNKVFPNVGMPNVLVGLQGNQVVGCKQVQTVVDGKKQFDPLTGSPLTHEACDQLTITPNSGTLTAEQFDEKVKNLVTFLAYSANP | not soluble |
| MGSDKIHHHHHHLTYNLLEGSGWMLKIYQVDSFTAVPFGGNPAGVCLLDEEIDERLYPRIASEMNLSETAFVRPGDEKNTYGLRWFTPKVEVKMCGHATLATAWIHFTELGVKGEISYETLSGKLGVRYVDGKIEMNFPSDNPYRVRIDEMLGRITGVEGECYYSSLTEKLLYIISSKSKLENLSFDFSLLETCDFGYTVKGLIVSSPGDEKFDFYSRYFAPWVGIDEDPVTGSAHTVLGPFWSEKLGRKNLRACQLSSRRGELDLELLPNSRILILGKAVTVIRGTISI | not soluble |
| MSRTTPYRLDDQIGFILRQANQRYAALFANGIGNGLTPTQWAALVRLGETGPCPQNQLGRLTAMDAATIKGVVERLDKRGLIQRSADPDDGRRLLVSLSPAGRAELEAGLAAAREINRQALAPLSLQEQETLRGLLARLI | soluble |
| MGSDKIHHHHHHMNGIGATPYSESQKFHIAAIILAAGFSLRMKSFKPLLPLGSASVIETAIQSFRKAGFMDIRVVLGHKAGELLPICDALGVQPILNEDYAEGMFSSVKAGVKSLGREVDGFFLLPADNPLIQADTLQRLYEGFNLGPGGIVYPVCQGKRGHPPLISRSYRDSILSWRGEGGLRALLEHYQADALEVGTEDQGVLLDMDTPEDYRTLLKHYGCAPTPTEFECYELLKGNNTPDQVIKHCETVARLSVFLGEQLSEAGLHLNRELLRTSALLHDIARLKPNHPQEGAKLTAAYPEVSAIIAAHMDCPWEPSQPLTEQEIVYLADKLVAKERIVSLQERFKGSVERHQNEPEVLEHVYRRFGQAYRIHDRVEEILGKSVQTLIKSNLGSDVHG | not soluble |
| MSLREDLLEETRKSCQKKIDELEDALSELKKETSQKDHHIKQLEEDNNSNIEWYQNKIEALKKDYESVITSVDSKQTDIEKLQYKVKSLEKEIEEDKIRLHTYNVMDETINDDSLRKELEKSKINLTDAYSQIKEYKDLYETTSQSLQQTNSKLDESFKDFTNQIKNLTDEKTSLEDKISLLKEQMFNLNNELDLQKKGMEKEKADFKKRISILQNNNKEVEAVKSEYESKLSKIQNDLDQQTIYANTAQNNYEQELQKHADVSKTISELREQLHTYKGQVKTLNLSRDQLENALKENEKSWSSQKESLLEQLDLSNSRIEDLSSQNKLLYDQIQIYTAADKEVNNSTNGPGLNNILITLRRERDILDTKVTVAERDAKMLRQKISLMDVELQDARTKLDNSRVEKENHSSIIQQHDDIMEKLNQLNLLRESNITLRNELENNNNKKKELQSELDKLKQNVAPIESELTALKYSMQEKEQELKLAKEEVHRWKKRSQDILEKHEQLSSSDYEKLESEIENLKEELENKERQGAEAEEKFNRLRRQAQERLKTSKLSQDSLTEQVNSLRDAKNVLENSLSEANARIEELQNAKVAQGNNQLEAIRKLQEDAEKASRELQAKLEESTTSYESTINGLNEEITTLKEEIEKQRQIQQQLQATSANEQNDLSNIVESMKKSFEEDKIKFIKEKTQEVNEKILEAQERLNQPSNINMEEIKKKWESEHEQEVSQKIREAEEALKKRIRLPTEEKINKIIERKKEELEKEFEEKVEERIKSMEQSGEIDVVLRKQLEAKVQEKQKELENEYNKKLQEELKDVPHSSHISDDERDKLRAEIESRLREEFNNELQAIKKKSFDEGKQQAMMKTTLLERKLAKMESQLSETKQSAESPPKSVNNVQNPLLGLPRKIEENSNSPFNPLLSGEKLLKLNSKSSSGGFNPFTSPSPNKHLQNDNDKRESLANKTDPPTHLEPSFNIPASREGHHHHHH | soluble |

Source: the DeepSol protein solubility set
